Test results from patent publication US20120065254A1.

Molecular target: C5a receptor (CD88) on differentiated U937 cells (UniProt P21730)
Test: cell-based or functional assay

Sequence of C5a receptor (CD88) on differentiated U937 cells (P21730 whole entry): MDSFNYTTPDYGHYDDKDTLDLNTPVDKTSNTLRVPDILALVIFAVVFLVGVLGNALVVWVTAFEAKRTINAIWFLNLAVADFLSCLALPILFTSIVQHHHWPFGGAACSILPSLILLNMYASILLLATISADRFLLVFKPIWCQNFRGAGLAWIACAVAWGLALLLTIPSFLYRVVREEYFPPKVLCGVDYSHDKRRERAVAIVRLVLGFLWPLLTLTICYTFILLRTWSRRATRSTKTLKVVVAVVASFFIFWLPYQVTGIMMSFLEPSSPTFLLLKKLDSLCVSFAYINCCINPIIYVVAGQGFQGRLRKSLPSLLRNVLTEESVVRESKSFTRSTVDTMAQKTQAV

Row | chemotactic response of U937 cells | chemotaxis of U937 cells, maximal effective concentration | Substance
1 | 0.8 nM |  | His6-tagged monkey C5a (His6-macC5a) (ligand)
2 |  | 1 nM | recombinant human C5a (from UniProt P01031 678-751) (ligand)
